Measurements as given in PMC2116414.

Molecular target: Acanthamoeba myosin-II (Acanthamoeba)
Experiment: electron microscopy

## Acanthamoeba myosin-II (complex)
  stoichiometry N: 8
